The values below come from patent US20230051847A1 (Johns Hopkins, published 2023).

The chains are these.
B1: H/K/N RAS Q61L_A1_cl1 (scFv)
scFv: DIQMTQSPSSLSASVGDRVTITCRASQDVNTAVAWYQQKPGKAPKLLIYSASFLYSGVPSRFSGSRSGTDFTLTISSLQPEDFATYYCQQASRQPYTFGQGTKVEIKRTGGGSGGGGSGGGASEVQLVESGGGLVQPGGSLRLSCAASGFNFSESGMHWVRQAPGKGLEWVAHFSGDSGYTYYADSVKGRFTISADTSKNTAYLQMNSLRAEDTAVYYCSRYMYYSGYFDYWGQGTLVTVSS
B2: H/K/N RAS Q61L_A1_cl7 (scFv)
scFv: DIQMTQSPSSLSASVGDRVTITCRASQDVNTAVAWYQQKPGKAPKLLIYSASFLYSGVPSRFSGSRSGTDFTLTISSLQPEDFATYYCQQAYYPPWTFGQGTKVEIKRTGGGSGGGGSGGGASEVQLVESGGGLVQPGGSLRLSCAASGFNVSRWAMHWVRQAPGKGLEWVARVYPSGYLTYYADSVKGRFTISADTSKNTAYLQMNSLRAEDTAVYYCSRNMQSYMDYWGQGTLVTVSS
B3: H/K/N RAS Q61L_A1_cl10 (scFv)
scFv: DIQMTQSPSSLSASVGDRVTITCRASQDVNTAVAWYQQKPGKAPKLLIYSASFLYSGVPSRFSGSRSGTDFTLTISSLQPEDFATYYCQQSYYPYYPWTFGQGTKVEIKRTGGGSGGGGSGGGASEVQLVESGGGLVQPGGSLRLSCAASGFNVSHSAMHWVRQAPGKGLEWVATVHPDWGNTYYADSVKGRFTISADTSKNTAYLQMNSLRAEDTAVYYCSRWQQYYYSFDYWGQGTLVTVSS
B4: H/K/N RAS Q61L_A1_cl4 (scFv)
scFv: DIQMTQSPSSLSASVGDRVTITCRASQDVNTAVAWYQQKPGKAPKLLIYSASFLYSGVPSRFSGSRSGTDFTLTISSLQPEDFATYYCQQSWYSPSTFGQGTKVEIKRTGGGSGGGGSGGGASEVQLVESGGGLVQPGGSLRLSCAASGFNISASGMHWVRQAPGKGLEWVAWIWGGSSYTYYADSVKGRFTISADTSKNTAYLQMNSLRAEDTAVYYCSRGQYLSYMDYWGQGTLVTVSS
B5: H/K/N RAS Q61L_A1_cl11 (scFv)
scFv: DIQMTQSPSSLSASVGDRVTITCRASQDVNTAVAWYQQKPGKAPKLLIYSASFLYSGVPSRFSGSRSGTDFTLTISSLQPEDFATYYCQQYDRPITFGQGTKVEIKRTGGGSGGGGSGGGASEVQLVESGGGLVQPGGSLRLSCAASGFNIYYEAMHWVRQAPGKGLEWVAQIYPWNDYTYYADSVKGRFTISADTSKNTAYLQMNSLRAEDTAVYYCSRNYYAATMDYWGQGTLVTVSS
B6: H/K/N RAS Q61L_A1_cl6 (scFv)
scFv: DIQMTQSPSSLSASVGDRVTITCRASQDVNTAVAWYQQKPGKAPKLLIYSASFLYSGVPSRFSGSRSGTDFTLTISSLQPEDFATYYCQQSYYSPWTFGQGTKVEIKRTGGGSGGGGSGGGASEVQLVESGGGLVQPGGSLRLSCAASGFNISYSNIHWVRQAPGKGLEWVAMIYGTRGGTYYADSVKGRFTISADTSKNTAYLQMNSLRAEDTAVYYCSRYYSYAMDYWGQGTLVTVSS
B7: H/K/N RAS Q61L_A1_cl3 (scFv)
scFv: DIQMTQSPSSLSASVGDRVTITCRASQDVNTAVAWYQQKPGKAPKLLIYSASFLYSGVPSRFSGSRSGTDFTLTISSLQPEDFATYYCQQTSSYPITFGQGTKVEIKRTGGGSGGGGSGGGASEVQLVESGGGLVQPGGSLRLSCAASGFNIYWYGMHWVRQAPGKGLEWVAQVYPWSGFTYYADSVKGRFTISADTSKNTAYLQMNSLRAEDTAVYYCSRDYYSYSLDYWGQGTLVTVSS
B8: H/K/N RAS Q61L_A1_cl9 (scFv)
scFv: DIQMTQSPSSLSASVGDRVTITCRASQDVNTAVAWYQQKPGKAPKLLIYSASFLYSGVPSRFSGSRSGTDFTLTISSLQPEDFATYYCQQTYYYPFTFGQGTKVEIKRTGGGSGGGGSGGGASEVQLVESGGGLVQPGGSLRLSCAASGFNLYAWGMHWVRQAPGKGLEWVALVYGGWGSTSYADSVKGRFTISADTSKNTAYLQMNSLRAEDTAVYYCSRAGSSKMSAGAFDYWGQGTLVTVSS
B9: H/K/N RAS Q61L_A1_cl8 (scFv)
scFv: DIQMTQSPSSLSASVGDRVTITCRASQDVNTAVAWYQQKPGKAPKLLIYSASFLYSGVPSRFSGSRSGTDFTLTISSLQPEDFATYYCQQSYSSGPVTFGQGTKVEIKRTGGGSGGGGSGGGASEVQLVESGGGLVQPGGSLRLSCAASGFNFSYGGIHWVRQAPGKGLEWVAMIYPLTGYTNYADSVKGRFTISADTSKNTAYLQMNSLRAEDTAVYYCSRDYYYSVDVWGQGTLVTVSS
B10: H/R/N RAS Q61R_A1_cl5 (scFv)
scFv: DIQMTQSPSSLSASVGDRVTITCRASQDVNTAVAWYQQKPGKAPKLLIYSASFLYSGVPSRFSGSRSGTDFTLTISSLQPEDFATYYCQQYYLYQPITFGQGTKVEIKRTGGGSGGGGSGGGASEVQLVESGGGLVQPGGSLRLSCAASGFNIGMYTMHWVRQAPGKGLEWVALVYPDSGYTNYADSVKGRFTISADTSKNTAYLQMNSLRAEDTAVYYCSRYTWQSMDYWGQGTLVTVSS
B11: H/R/N RAS Q61R_A1_cl1 (scFv)
scFv: DIQMTQSPSSLSASVGDRVTITCRASQDVNTAVAWYQQKPGKAPKLLIYSASFLYSGVPSRFSGSRSGTDFTLTISSLQPEDFATYYCQQSYTSPLTFGQGTKVEIKRTGGGSGGGGSGGGASEVQLVESGGGLVQPGGSLRLSCAASGFNIYYGVMHWVRQAPGKGLEWVAMIYPDSSWTYYADSVKGRFTISADTSKNTAYLQMNSLRAEDTAVYYCSRDQDFHYMNYYLSYALDYWGQGTLVTVSS
notes: also called H/K/N RAS Q61R(55-64)-A1 cl.1
B12: H/R/N RAS Q61R_A1_cl7 (scFv)
scFv: DIQMTQSPSSLSASVGDRVTITCRASQDVNTAVAWYQQKPGKAPKLLIYSASFLYSGVPSRFSGSRSGTDFTLTISSLQPEDFATYYCQQYASDPITFGQGTKVEIKRTGGGSGGGGSGGGASEVQLVESGGGLVQPGGSLRLSCAASGFNLDYGWMHWVRQAPGKGLEWVAWVVPGSDYTDYADSVKGRFTISADTSKNTAYLQMNSLRAEDTAVYYCSRFHYTAFDVWGQGTLVTVSS
B13: H/R/N RAS Q61R_A1_cl3 (scFv)
scFv: DIQMTQSPSSLSASVGDRVTITCRASQDVNTAVAWYQQKPGKAPKLLIYSASFLYSGVPSRFSGSRSGTDFTLTISSLQPEDFATYYCQQSYYAPITFGQGTKVEIKRTGGGSGGGGSGGGASEVQLVESGGGLVQPGGSLRLSCAASGFNVQWSHMHWVRQAPGKGLEWVARLSPPSGYTNYADSVKGRFTISADTSKNTAYLQMNSLRAEDTAVYYCSRLILSKGGYGWAMDYWGQGTLVTVSS
B14: H/R/N RAS Q61R_A1_cl2 (scFv)
scFv: DIQMTQSPSSLSASVGDRVTITCRASQDVNTAVAWYQQKPGKAPKLLIYSASFLYSGVPSRFSGSRSGTDFTLTISSLQPEDFATYYCQQYWYYYPITFGQGTKVEIKRTGGGSGGGGSGGGASEVQLVESGGGLVQPGGSLRLSCAASGFNIYSYDMHWVRQAPGKGLEWVAISPGGSYTYYADSVKGRFTISADTSKNTAYLQMNSLRAEDTAVYYCSRSAFTGYFDVWGQGTLVTVSS

The target in the first test is T1, RAS Q61WT[55-64] pHLA-A1 (human).
T1 construct: also called Q61WT pHLA-A1; H/K/N RAS WT(55-64) peptide on HLA-A1
As to the kind of experiment: flow cytometry: scFv phage supernatant on peptide-pulsed SigM5 cells (HLA-A1+), median fluorescence intensity. Background: A flow cytometer gives signals particle by particle.
On to B1, for which the binding result is on record as “no binding”.

In the case of B2, the binding result was “no binding”.

For the molecule B3, the binding result is recorded as “no binding”.

As to B4, the binding result is “no binding”.

For the molecule B5, the binding result is given as “no binding”.

In the case of B6, the binding result is “no binding”.

Take B7: the binding result was “no binding”.

With B8, the binding result was “no binding”.

Turning to B9, the binding result is on record as “no binding”.

Another test concerns the target T1, RAS Q61WT[55-64] pHLA-A1. Described as above. The source holds these as a separate data set.
Method: Cells were stained with 50 μL of phage supernatant per 50 μL of cells, washed and stained with rabbit anti-M13 antibody, then washed and stained with anti-Rabbit-PE antibody. Cells were stained with a live/dead Near-IR dye, washed, and analyzed by an iQue Screener (IntelliCyt, Albuquerque, N. Mex.).
Monoclonal phage were grown and sequenced as described above. Phage supernatant from representative wells of each unique clone was selected for flow cytometry analysis. In each well of a deep 96-well 2 mL plate, 50 μL of monoclonal phage was incubated with 2.5×10⁵ peptide-pulsed SigM5 cells in 50 μL of stain buffer. Plates were incubated on ice for 1 hour, followed by washing with 1 mL of stain buffer. Cells were then stained with 1 μg of rabbit anti-M13 antibody (Novus Biologicals), washed, stained with anti-rabbit-PE (BioLegend), incubated with an additional 100 μL of LIVE/DEAD Fixable Near-IR dye diluted 1:1000 in PBS for 10 minutes at RT in the dark, followed by washing in stain buffer before analysis. Stained cells were analyzed using an Intellicyt iQue3 flow cytometer (Sartorius, Gottingen, Germany).
With B10, the binding result is listed as “no binding”.

For the molecule B11, the binding result is given as “no binding”.

As to B12, the binding result is “no binding”.

Regarding B13, the binding result was “no binding”.

Consider B14, for which the binding result was “no binding”.
